In one assay the test system is S366 peptide. The assay is described as follows: screening of kinases for S366 of STING (33P-ATP). It is filed as biochemical. The following applies: for Fold inducton: S366 peptide vs A366 peptide; for Activity, S366 peptide: kinase mixed with peptide and 33P-ATP. As for the experimental part: (§1) The activity of 217 protein kinase targets were evaluated against 2 peptides (A366 and S366) as substrate. Protein kinases were mixed with each peptide and ^33P-ATP and then activity (CPM) was measured. The below kinases were identified as phosphorylating S366 in STING. Identification of kinases which target this serine opens up novel avenues for drug discovery. Drugs that target this association may inhibit STING activity and be used for therapeutic purposes to inhibit STING activity. STING over activity may lead to inflammatory diseases which can exacerbate cancer.

The next assay deals with A366 peptide. Description: screening of kinases for S366 of STING (33P-ATP). It is filed as biochemical. The following applies: kinase mixed with peptide and 33P-ATP. The procedure: as §1

The source of these data is patent US20180085432A1, “STING (Stimulator of Interferon Genes), A Regulator of Innate Immune Responses” (University of Miami, priority 2008, published 2018).

For the molecule NEK6: protein kinase, in the assay on S366 peptide, the Fold inducton stood at 6.45 and the “Activity, S366 peptide” value is recorded as 35556 cpm. Also, in the assay with A366 peptide, the “Activity, A366 peptide” value was 5512 cpm.

In the case of PKC (isoform illegible) (enzyme), the Activity (cpm), kinase mixed with peptide and 33P-ATP with A366 peptide of STING stood at 6810 cpm; with S366 peptide of STING, 12800 cpm.

Turning to NEK7: protein kinase, in the assay with S366 peptide, the Fold inducton is 5.28 and the “Activity, S366 peptide” value is 19112 cpm. The “Activity, A366 peptide” value in the assay with A366 peptide is listed as 3619 cpm.

Take PIM2 (from UniProt Q9P1W9) (enzyme): the results for the Activity (cpm), kinase mixed with peptide and 33P-ATP with A366 peptide of STING and in the assay with S366 peptide of STING were 1410 cpm and 3720 cpm, respectively.

For CK1 (isoform illegible) (enzyme), the Activity (cpm), kinase mixed with peptide and 33P-ATP is 15600 cpm in the assay with A366 peptide of STING and 26200 cpm with S366 peptide of STING.

Regarding PIM2: protein kinase, in the assay on S366 peptide, the Fold inducton is recorded as 2.63 and the “Activity, S366 peptide” value turned out to be 3715 cpm. For the same molecule, in the assay with A366 peptide, the “Activity, A366 peptide” value was 1414 cpm.

On to NEK7 (from UniProt Q8TDX7) (enzyme), for which the Activity (cpm), kinase mixed with peptide and 33P-ATP in the assay with A366 peptide of STING turned out to be 3620 cpm; with S366 peptide of STING it was 19100 cpm.

Consider NEK6 (from UniProt Q9HC98) (enzyme), for which the Activity (cpm), kinase mixed with peptide and 33P-ATP was 5510 cpm with A366 peptide of STING and 35600 cpm with S366 peptide of STING.

B1: IKKα (enzyme)
chain: MERPPGLRPGAGGPWEMRERLGTGGFGNVCLYQHRELDLKIAIKSCRLELSTKNRERWCHEIQIMKKLNHANVVKACDVPEELNILIHDVPLLAMEYCSGGDLRKLLNKPENCCGLKESQILSLLSDIGSGIRYLHENKIIHRDLKPENIVLQDVGGKIIHKIIDLGYAKDVDQGSLCTSFVGTLQYLAPELFENKPYTATVDYWSFGTMVFECIAGYRPFLHHLQPFTWHEKIKKKDPKCIFACEEMSGEVRFSSHLPQPNSLCSLVVEPMENWLQLMLNWDPQQRGGPVDLTLKQPRCFVLMDHILNLKIVHILNMTSAKIISFLLPPDESLHSLQSRIERETGINTGSQELLSETGISLDPRKPASQCVLDGVRGCDSYMVYLFDKSKTVYEGPFASRSLSDCVNYIVQDSKIQLPIIQLRKVWAEAVHYVSGLKEDYSRLFQGQRAAMLSLLRYNANLTKMKNTLISASQQLKAKLEFFHKSIQLDLERYSEQMTYGISSEKMLKAWKEMEEKAIHYAEVGVIGYLEDQIMSLHAEIMELQKSPYGRRQGDLMESLEQRAIDLYKQLKHRPSDHSYSDSTEMVKIIVHTVQSQDRVLKELFGHLSKLLGCKQKIIDLLPKVEVALSNIKEADNTVMFMQGKRQKEIWHLLKIACTQSSARSLVGSSLEGAVTPQTSAWLPPTSAEHDHSLSCVVTPQDGETSAQMIEENLNCLGHLSTIIHEANEEQGNSMMNLDWSWLTE
As for B1, in the assay on S366 peptide, the Fold inducton was 2.83 and the “Activity, S366 peptide” value worked out at 6889 cpm. Moreover, the “Activity, A366 peptide” value in the assay on A366 peptide is given as 2432 cpm. In the assay with A366 peptide of STING, the Activity (cpm), kinase mixed with peptide and 33P-ATP came to 2430 cpm. In the assay with S366 peptide of STING, this molecule showed an Activity (cpm), kinase mixed with peptide and 33P-ATP of 6890 cpm.

B2: MEKK1 (enzyme)
chain: NQKCKEKMEAEEEEALAIAMAMSASQDALPIVPQLQVENGEDIIIIQQDTPETLPGHTKAKQPYREDTEWLKGQQIGLGAFSSCYQAQDVGTGTLMAVKQVTYVRNTSSEQEEVVEALREEIRMMSHLNHPNIIRMLGATCEKSNYNLFIEWMAGGSVAHLLSKYGAFKESVVINYTEQLLRGLSYLHENQIIHRDVKGANLLIDSTGQRLRIADFGAAARLASKGTGAGEFQGQLLGTIAFMAPEVLRGQQYGRSCDVWSVGCAIIEMACAKPPWNAEKHSNHLALIFKIASATTAPSIPSHLSPGLRDVALRCLELQPQDRPPSRELLKHPVFRTTW
In the case of B2, in the assay on S366 peptide, the Fold inducton stood at 2.20 and the “Activity, S366 peptide” value is reported as 24866 cpm. For the same molecule, the “Activity, A366 peptide” value in the assay with A366 peptide is given as 11316 cpm. In addition, the Activity (cpm), kinase mixed with peptide and 33P-ATP in the assay with A366 peptide of STING was found to be 11300 cpm. In addition, in the assay with S366 peptide of STING, the Activity (cpm), kinase mixed with peptide and 33P-ATP came out at 24900 cpm.

B3: NEK2 (enzyme)
chain: MPSRAEDYEVLYTIGTGSYGRCQKIRRKSDGKILVWKELDYGSMTEAEKQMLVSEVNLLRELKHPNIVRYYDRIIDRTNTTLYIVMEYCEGGDLASVITKGTKERQYLDEEFVLRVMTQLTLALKECHRRSDGGHTVLHRDLKPANVFLDGKQNVKLGDFGLARILNHDTSFAKTFVGTPYYMSPEQMNRMSYNEKSDIWSLGCLLYELCALMPPFTAFSQKELAGKIREGKFRRIPYRYSDELNEIITRMLNLKDYHRPSVEEILENPLIADLVADEQRRNLERRGRQLGEPEKSQDSSPVLSELKLKEIQLQERERALKAREERLEQKEQELCVRERLAEDKLARAENLLKNYSLLKERKFLSLASNPELLNLPSSVIKKKVHFSGESKENIMRSENSESQLTSKSKCKDLKKRLHAAQLRAQALSDIEKNYQLKSRQILGMR
Turning to B3, in the assay with S366 peptide, the Fold inducton is listed as 18.65 and the “Activity, S366 peptide” value worked out at 162331 cpm. The “Activity, A366 peptide” value with A366 peptide is 8702 cpm. The molecule further showed an Activity (cpm), kinase mixed with peptide and 33P-ATP with A366 peptide of STING of 8700 cpm. Further, in the assay with S366 peptide of STING, the Activity (cpm), kinase mixed with peptide and 33P-ATP amounted to 162000 cpm.

B4: GRK7 (enzyme)
chain: MVDMGALDNLIANTAYLQARKPSDCDSKELQRRRRSLALPGLQGCAELRQKLSLNFHSLCEQQPIGRRLFRDFLATVPTFRKAATFLEDVQNWELAEEGPTKDSALQGLVATCASAPAPGNPQPFLSQAVATKCQAATTEEERVAAVTLAKAEAMAFLQEQPFKDFVTSAFYDKFLQWKLFEMQPVSDKYFTEFRVLGKGGFGEVCAVQVKNTGKMYACKKLDKKRLKKKGGEKMALLEKEILEKVSSPFIVSLAYAFESKTHLCLVMSLMNGGDLKFHIYNVGTRGLDMSRVIFYSAQIACGMLHLHELGIVYRDMKPENVLLDDLGNCRLSDLGLAVEMKGGKPITQRAGTNGYMAPEILMEKVSYSYPVDWFAMGCSIYEMVAGRTPFKDYKEKVSKEDLKQRTLQDEVKFQHDNFTEEAKDICRLFLAKKPEQRLGSREKSDDPRKHHFFKTINFPRLEAGLIEPPFVPDPSVVYAKDIAEIDDFSEVRGVEFDDKDKQFFKNFATGAVPIAWQEEIIETGLFEELNDPNRPTGCEEGNSSKSGVCLLL
Turning to B4, in the assay on S366 peptide, the Fold inducton is 1.81 and the “Activity, S366 peptide” value amounted to 13124 cpm. Further, the “Activity, A366 peptide” value with A366 peptide is listed as 7263 cpm. This molecule gave an Activity (cpm), kinase mixed with peptide and 33P-ATP in the assay with A366 peptide of STING of 7260 cpm. The molecule also gave an Activity (cpm), kinase mixed with peptide and 33P-ATP with S366 peptide of STING of 13100 cpm.

B5: IRAK4 (enzyme)
chain: MNKPITPSTYVRCLNVGLIRKLSDFIDPQEGWKKLAVAIKKPSGDDRYNQFHIRRFEALLQTGKSPTSELLFDWGTTNCTVGDLVDLLIQNEFFAPASLLLPDAVPKTANTLPSKEAITVQQKQMPFCDKDRTLMTPVQNLEQSYMPPDSSSPENKSLEVSDTRFHSFSFYELKNVTNNFDERPISVGGNKMGEGGFGVVYKGYVNNTTVAVKKLAAMVDITTEELKQQFDQEIKVMAKCQHENLVELLGFSSDGDDLCLVYVYMPNGSLLDRLSCLDGTPPLSWHMRCKIAQGAANGINFLHENHHIHRDIKSANILLDEAFTAKISDFGLARASEKFAQTVMTSRIVGTTAYMAPEALRGEITPKSDIYSFGVVLLEIITGLPAVDEHREPQLLLDIKEEIEDEEKTIEDYIDKKMNDADSTSVEAMYSVASQCLHEKKNKRPDIKKVQQLLQEMTAS
On to B5, for which, in the assay on S366 peptide, the Fold inducton came to 6.77 and the “Activity, S366 peptide” value was 50353 cpm. Also, the “Activity, A366 peptide” value with A366 peptide came to 7435 cpm. In addition, the Activity (cpm), kinase mixed with peptide and 33P-ATP with A366 peptide of STING came out at 7440 cpm. In the assay with S366 peptide of STING, this molecule yielded an Activity (cpm), kinase mixed with peptide and 33P-ATP of 50400 cpm.

B6: NEK9 (enzyme)
chain: MSVLGEYERHCDSINSDFGSESGGCGDSSPGPSASQGPRAGGGAAEQEELHYIPIRVLGRGAFGEATLYRRTEDDSLVVWKEVDLTRLSEKERRDALNEIVILALLQHDNIIAYYNHFMDNTTLLIELEYCNGGNLYDKILRQKDKLFEEEMVVWYLFQIVSAVSCIHKAGILHRDIKTLNIFLTKANLIKLGDYGLAKKLNSEYSMAETLVGTPYYMSPELCQGVKYNFKSDIWAVGCVIFELLTLKRTFDATNPLNLCVKIVQGIRAMEVDSSQYSLELIQMVHSCLDQDPEQRPTADELLDRPLLRKRRREMEEKVTLLNAPTKRPRSSTVTEAPIAVVTSRTSEVYVWGGGKSTPQKLDVIKSGCSARQVCAGNTHFAVVTVEKELYTWVNMQGGTKLHGQLGHGDKASYRQPKHVEKLQGKAIRQVSCGDDFTVCVTDEGQLYAFGSDYYGCMGVDKVAGPEVLEPMQLNFFLSNPVEQVSCGDNHVVVLTRNKEVYSWGCGEYGRLGLDSEEDYYTPQKVDVPKALIIVAVQCGCDGTFLLTQSGKVLACGLNEFNKLGLNQCMSGIINHEAYHEVPYTTSFTLAKQLSFYKIRTIAPGKTHTAAIDERGRLLTFGCNKCGQLGVGNYKKRLGINLLGGPLGGKQVIRVSCGDEFTIAATDDNHIFAWGNGGNGRLAMTPTERPHGSDICTSWPRPIFGSLHHVPDLSCRGWHTILIVEKVLNSKTIRSNSSGLSIGTVFQSSSPGGGGGGGGGEEEDSQQESETPDPSGGFRGTMEADRGMEGLISPTEAMGNSNGASSSCPGWLRKELENAEFIPMPDSPSPLSAAFSESEKDTLPYEELQGLKVASEAPLEHKPQVEASSPRLNPAVTCAGKGTPLTPPACACSSLQVEVERLQGLVLKCLAEQQKLQQENLQIFTQLQKLNKKLEGGQQVGMHSKGTQTAKEEMEMDPKPDLDSDSWCLLGTDSCRPSL
With B6, in the assay on S366 peptide, the Fold inducton is 3.77 and the “Activity, S366 peptide” value was found to be 26284 cpm. The “Activity, A366 peptide” value in the assay with A366 peptide amounted to 6977 cpm. In the assay with A366 peptide of STING, this molecule had an Activity (cpm), kinase mixed with peptide and 33P-ATP of 6980 cpm. Moreover, the Activity (cpm), kinase mixed with peptide and 33P-ATP with S366 peptide of STING is 26300 cpm.

B7: RIPK5 (enzyme)
chain: SICSQFRTRLNSSHEAFAASLRQLEAGHSGRLEKTEDLWLRVRKDHAPRLARLSLESCSLQDVLLHRKPKLGQELGRGQYGVVYLCDNWGGHFPCALKSVVPPDEKHWNDLALEFHYMRSLPKHERLVDLHGSVIDYNYGGGSSIAVLLIMERLHRDLYTGLKAGLTLETRLQIALDVVEGIRFLHSQGLVHRDIKLKNVLLDKQNRAKITDLGFCKPEAMMSGSIVGTPIHMAPELFTGKYDNSVDVYAFGILFWYICSGSVKLPEAFERCASKDHLWNNVRRGARPERLPVFDEECWQLMEACWDGDPLKRPLLGIVQPMLQGIMNRLCKSNSEQPNRGLDDST
Regarding B7, in the assay on S366 peptide, the Fold inducton is recorded as 12.03 and the “Activity, S366 peptide” value is on record as 15966 cpm. The “Activity, A366 peptide” value with A366 peptide is 1327 cpm. In addition, in the assay with A366 peptide of STING, the Activity (cpm), kinase mixed with peptide and 33P-ATP was 1330 cpm. The same molecule came in with an Activity (cpm), kinase mixed with peptide and 33P-ATP in the assay with S366 peptide of STING of 16000 cpm.
